Patent publication US20030148283

Biological target: T1, Tma endonuclease V H116A H116A (Thermotoga maritima) (UniProt Q9X2H9)
T1 sequence: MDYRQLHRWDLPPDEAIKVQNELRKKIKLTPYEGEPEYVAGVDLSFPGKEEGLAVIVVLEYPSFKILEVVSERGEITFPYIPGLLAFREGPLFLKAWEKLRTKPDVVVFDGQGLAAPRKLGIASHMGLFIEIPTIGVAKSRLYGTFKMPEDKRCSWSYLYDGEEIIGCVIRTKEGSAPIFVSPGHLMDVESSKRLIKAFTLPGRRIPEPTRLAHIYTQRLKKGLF
Experiment: EMSA
Conditions: deoxyinosine; MgCl2; bound about half as tightly as wt

nicked I/A product was tested, and the binding signal was 0.5 fold of wt.
